Laboratory results: patent US20260266848A1, “COMPOSITIONS AND METHODS FOR DIAGNOSING AND TREATING DYSTONIA” (Duke University, priority 2023, published 2026)

B1: Wbp2 (protein, UniProt P97765 1-261, looked up)
WW domain-binding protein 2: MALNKNHSEGGGVIVNNTESILMSYDHVELTFNDMKNVPEAFKGTKKGTVYLTPYRVIFLSKGKDAMQSFMMPFYLMKDCEIKQPVFGANFIKGIVKAEAGGGWEGSASYKLTFTAGGAIEFGQRMLQVASQASRGEVPNGAYGYPYMPSGAYVFPPPVANGMYPCPPGYPYPPPPPEFYPGPPMMDGAMGYVQPPPPPYPGPMEPPVSGPSAPATPAAEAKAAEAAASAYYNPGNPHNVYMPTSQPPPPPYYPPEDKKTQ
B2: Uba3 (protein, UniProt Q8C878 2-462, looked up)
NEDD8-activating enzyme E1 …: ADGEEPEKKRRRIEELLAEKMAVDGGCGDTGDWEGRWNHVKKFLERSGPFTHPDFEPSTESLQFLLDTCKVLVIGAGGLGCELLKNLALSGFRQIHVIDMDTIDVSNLNRQFLFRPKDVGRPKAEVAAEFLNDRVPNCNVVPHFNKIQDFNDTFYRQFHIIVCGLDSIIARRWINGMLISLLNYEDGVLDPSSIVPLIDGGTEGFKGNARVILPGMTACIECTLELYPPQVNFPMCTIASMPRLPEHCIEYVRMLQWPKEQPFGDGVPLDGDDPEHIQWIFQKSIERASQYNIRGVTYRLTQGVVKRIIPAVASTNAVIAAVCATEVFKIATSAYIPLNNYLVFNDVDGLYTYTFEAERKENCPACSQLPQNIQFSPSAKLQEVLDYLTNSASLQMKSPAITATLEGKNRTLYLQSVTSIEERTRPNLSKTLKELGLVDGQELAVADVTTPQTVLFKLHFT
B3: Scarb2 (protein, UniProt Q14108 1-478, looked up)
Lysosome membrane protein 2: MGRCCFYTAGTLSLLLLVTSVTLLVARVFQKAVDQSIEKKIVLRNGTEAFDSWEKPPLPVYTQFYFFNVTNPEEILRGETPRVEEVGPYTYRELRNKANIQFGDNGTTISAVSNKAYVFERDQSVGDPKIDLIRTLNIPVLTVIEWSQVHFLREIIEAMLKAYQQKLFVTHTVDELLWGYKDEILSLIHVFRPDISPYFGLFYEKNGTNDGDYVFLTGEDSYLNFTKIVEWNGKTSLDWWITDKCNMINGTDGDSFHPLITKDEVLYVFPSDFCRSVYITFSDYESVQGLPAFRYKVPAEILANTSDNAGFCIPEGNCLGSGVLNVSICKNGAPIIMSFPHFYQADERFVSAIEGMHPNQEDHETFVDINPLTGIILKAAKRFQINIYVKKLDDFVETGDIRTMVFPVMYLNESVHIDKETASRLKSMINTTLIITNIPYIIMALGVFFGLVFTWLACKGQGSMDEGTADERAPLIRT
B4: Apom (protein, UniProt Q9Z1R3 1-190, looked up)
Apolipoprotein M: MFHQVWAALLSLYGLLFNSMNQCPEHSQLTALGMDDTETPEPHLGLWYFIAGAASTTEELATFDPVDNIVFNMAAGSAPRQLQLRATIRTKSGVCVPRKWTYRLTEGKGNMELRTEGRPDMKTDLFSSSCPGGIMLKETGQGYQRFLLYNRSPHPPEKCVEEFQSLTSCLDFKAFLVTPRNQEACPLSSK
B5: Ilf3 (protein, UniProt Q9Z1X4 1-898, looked up)
Interleukin enhancer-binding …: MRPMRIFVNDDRHVMAKHSSVYPTQEELEAVQNMVSHTERALKAVSDWIDEQEKGNSELSEAENMDTPPDDESKEGAGEQKAEHMTRTLRGVMRVGLVAKGLLLKGDLDLELVLLCKEKPTTALLDKVADNLAIQLTTVTEDKYEILQSVDDAAIVIKNTKEPPLSLTIHLTSPVVREEMEKVLAGETLSVNDPPDVLDRQKCLAALASLRHAKWFQARANGLKSCVIVIRVLRDLCTRVPTWGPLRGWPLELLCEKSIGTANRPMGAGEALRRVLECLASGIVMPDGSGIYDPCEKEATDAIGHLDRQQREDITQSAQHALRLAAFGQLHKVLGMDPLPSKMPKKPKNENPVDYTVQIPPSTTYAITPMKRPMEEDGEEKSPSKKKKKIQKKEEKADPPQAMNALMRLNQLKPGLQYKLISQTGPVHAPIFTMSVEVDGSNFEASGPSKKTAKLHVAVKVLQDMGLPTGAEGRDSSKGEDSAEESDGKPAIVAPPPVVEAVSNPSSVFPSDATTEQGPILTKHGKNPVMELNEKRRGLKYELISETGGSHDKRFVMEVEVDGQKFQGAGSNKKVAKAYAALAALEKLFPDTPLALEANKKKRTPVPVRGGPKFAAKPHNPGFGMGGPMHNEVPPPPNIRGRGRGGNIRGRGRGRGFGGANHGGGYMNAGAGYGSYGYSSNSATAGYSQFYSNGGHSGNAGGGGSGGGGGSSSYSSYYQGDSYNSPVPPKHAGKKPLHGGQQKASYSSGYQSHQGQQQPYNQSQYSSYGTPQGKQKGYGHGQGSYSSYSNSYNSPGGGGGSDYSYDSKFNYSGSGGRSGGNSYGSSGSSSYNTGSHGGYGTGSGGSSSYQGKQGGYSSQSNYSSPGSSQSYSGPASSYQSSQGGYSRNTEHSMNYQYR
B6: Slc25a5 (protein, UniProt P51881 1-298, looked up)
ADP/ATP translocase 2: MTDAAVSFAKDFLAGGVAAAISKTAVAPIERVKLLLQVQHASKQITADKQYKGIIDCVVRIPKEQGVLSFWRGNLANVIRYFPTQALNFAFKDKYKQIFLGGVDKRTQFWRYFAGNLASGGAAGATSLCFVYPLDFARTRLAADVGKAGAEREFKGLGDCLVKIYKSDGIKGLYQGFNVSVQGIIIYRAAYFGIYDTAKGMLPDPKNTHIFISWMIAQSVTAVAGLTSYPFDTVRRRMMMQSGRKGTDIMYTGTLDCWRKIARDEGSKAFFKGAWSNVLRGMGGAFVLVLYDEIKKYT
B7: Slc44a1 (protein, UniProt Q6X893 2-653, looked up)
Choline transporter-like …: GCCSSASAAQSSKREWKPLEDRSCTDIPWLLLFVLFCIGMGFICGFSVATGAAARLVSGYDSYGNICGQRNAKLEAIPNSGLDHTHRKYVFFLDPCNLDLINRKIKSIALCVAACPRQELKTLSDVQKFAEINGSALCSYNIKPSEYTLTSKSSGFCPKLPVPASAPIPFFHRCAPVNISCYAKFAEALITFVSDNSVLHRLISGVMTSKEIILGLCLLSLVLSMILMVIIRYISRVLVWILTVLVILGSLGGTGVLWWLYAKQRRSPKEAVIPEQLQIAEDNLRALLIYAISATVFTVILFLIMLVMRKRVALTIALFHVAGKVFIHLPLLVFQPFWTFFALVLFWAYWIMTLLFLGTTGSAVQNEQGFVEYKISGPLQYMWWYHVVGLIWISEFILACQQMTVAGAVVTYYFTRDKRNLPFTPILASVNRLIRYHLGTVAKGSFIITLVKIPRMVLMYIHSQLKGKENACARCMLKSCICCLWCLEKCLSYLNQNAYTATAINSTNFCTSAKDAFVILVENALRVAAINTVGDFMLFLGKVLIVCSTGLAGIMLLNYQQDYTVWVLPLIIVCLFAFLVAHCFLSIYEMVVDVLFLCFAIDTKYNDGSPGREFYMDKVLMEFVENSRKAMKEAGKGGAADARELKPMLRKR
B8: Exoc4 (protein, UniProt O35382 2-975, looked up)
Exocyst complex component 4: AAEAAGGKYRSTVSKSKDPSGLLISVIRTLSTSDDVEDRENEKGRLEEAYEKCDRDLDELIVQHYTELTTAIRTYQSITERITNSRNKIKQVKENLLSCKMLLHCKRDELRKLWIEGIEHKHVLNLLDEIENIKQVPQKLEQCMASKHYLSATDMLVSAVESLEGPLLQVEGLSDLRLELHSKKMNLHLVLIEELHRHLYIKSTSRVVQRNKEKGKMSSHGKDPSPGPLIDVSNIPTPRKFLDASQYSAAGGSSVREMNLQDVKEDLECDPEENSTLFMGILIQGLARLKKIPETVKAIKERLEQELKQIVKRSTTQVADSAYQRGESLTVDNQPRLLLELLELLFDKFNAVATAHSVVLGYLQDSVGTQLTQQEEIKLYDMADVWVKIQDVLQMLLTEYLDMKNTRTASEPSAQLSYASTGREFAAFFAKKKPQRPKNSLFKFESSSHAISMSAYLREQRRELYSRSGELQGGPDDNLIEGGGTKFVCKPGARNITVIFHPLLRFIQEIEHALGLGPAKQCPLREFLTVYIKSIFLNQVLAEINKEIEGVTKTSDPLKILANADTMKVLGVQRPLLQSTIIVEKTVQDLMNLMHDLSAYSDQFLNMVCVKLQEYKDTCSTAYRGIVQSEEKLVISASWAKDDDISRLLKSLPNWTNMAQPKQLRPKREEEEDFIRAAFGKESEVLIGNLGDKLIPPQDILRDVSDLKALANMHESLEWLAGRTKSAFSNLSTSQMLSPAQESHVNMDLPPVSEQIMQTLSELAKTFQDMADRCLLVLHLEVRVHCFHYLIPLAKEGNYAIVANVESMDYDPLVVKLNKDISAMEEAMSASLQQHKFQYIFEGLGHLISCILINGAQYFRRISESGIKKMCRNIFVLQQNLTNITMSREADLDFARQYYEMLYNTADELLNLVVDQGVKYTELEYIHALTLLHRSQTGVGDQTTQNTRLQRLKEIICEQAAIKQATKDKKITTV

These molecules were tested on WT MEF EVs (assay: Quantitative LC-MS/MS proteomics of EVs from ISRIB-treated WT MEF cultures). Conditions: EV protein abundance, ISRIB-treated WT vs WT.
Type: cell-based, mouse
Parameters: key to ISRIB and DYT Parallel Direction / ISRIB and DYT Parallel Direction, Ctdsp1 / ISRIB and DYT Parallel Direction, Pcdh19 / ISRIB and DYT Parallel Direction, Tspan7 / ISRIB and DYT Parallel Direction, Myo1e / ISRIB and DYT Parallel Direction, Plpp3 / ISRIB and DYT Parallel Direction, Sh3bp4 / ISRIB and DYT Parallel Direction, Dnajc7 / ISRIB and DYT Parallel Direction, Drg1 / ISRIB and DYT Parallel Direction, Maea: YES = protein abundance effect similar to DYT/WT

Molecule | WT + ISRIB/WT Cohen's d
B1 | −1.50
B2 | −1.68
B3 | 0.09
B4 | 2.53
B5 | −4.89
B6 | −0.54
B7 | 0.80
B8 | −1.51

Same assay, conditions: EV protein abundance, WT + ISRIB vs WT, direction compared with DYT/WT

Molecule | ISRIB and DYT Parallel Direction
B1 | YES
B2 | YES
B4 | YES
B5 | YES
B6 | YES
B8 | YES

What follows are molecules tested on DYT-TOR1A MEF EVs (assay: Quantitative LC-MS/MS proteomics of EVs from drug-treated DYT-TOR1A MEF cultures (ritonavir, salubrinal)). Conditions: EV protein abundance, DYT + RTV (ritonavir) vs DYT, direction compared with DYT/WT.
Type: cell-based, mouse
Parameters: key to RTV Corrective Direction / RTV Corrective Direction, Grwd1 / RTV Corrective Direction, Srrm2 / RTV Corrective Direction, Rbm17 / RTV Corrective Direction, Dcaf8 / RTV Corrective Direction, Edil3 / RTV Corrective Direction, Timp3 / RTV Corrective Direction, Heatr3 / RTV Corrective Direction, Brd4 / RTV Corrective Direction, P3h4 / RTV Corrective Direction, Pacsin3 / RTV Corrective Direction, Naa50 / RTV Corrective Direction, Lpar6 / RTV Corrective Direction, Ndrg1 / RTV Corrective Direction, Kntc1 / RTV Corrective Direction, Cdk11b / RTV Corrective Direction, Sumo1 / RTV Corrective Direction, Lsm4 / RTV Corrective Direction, Hmga2 / RTV Corrective Direction, Cstf1 / RTV Corrective Direction, Tes / RTV Corrective Direction, Sbno1 / RTV Corrective Direction, Unc119b / RTV Corrective Direction, Cfdp1 / RTV Corrective Direction, Sec61b: YES = protein abundance effect opposite to DYT/WT

Molecule | RTV Corrective Direction
B2 | YES
B3 | YES
B7 | YES
B8 | YES

Same assay, conditions: EV protein abundance, ritonavir (RTV)-treated DYT vs DYT

Molecule | DYT + RTV/DYT Cohen's d
B1 | −0.89
B2 | 10.01
B3 | 0.24
B4 | 0.40
B5 | −1.23
B6 | −0.78
B7 | 0.84
B8 | 7.70
